Measurements reported in US20200165330A1 (ORDER MADE MEDICAL RESEARCH, published 2020).
One block for each binder: values may come before it.

Columns and labels:
[1] = molecular target: T1, Human recombinant VEGF165 (human, UniProt P15692 181-395); experiment: ELISA, human VEGF165 coated at 20 ng/well, antibody serially diluted from 1 ug/ml, peroxidase anti-human Ig, absorbance 450 nm
T1 construct: also called rhVEGF165; rhVEGF
Procedure: (§1) Next, after 3 times of washing with 300 μL of 0.02% Tween 20-containing PBS (−) (hereafter, denoted as “PBS-T”), 300 μL of 3% skim milk-containing PBS (−) was dispensed to each well, followed by blocking at 37° C. for 1 hour. […] After washing similarly, TMB Single Solution was added for color development at room temperature. After the reaction was stopped with 1 N sulfuric acid, absorbance at 450 nm was measured using a plate reader (Molecular Devices).

human VEGF121 = molecular target: T2, human VEGF121 (human, UniProt P15692 207-321); experiment: ELISA, human VEGF121 coated at 20 ng/well, antibody serially diluted from 1 ug/ml, peroxidase anti-human Ig, absorbance 450 nm
T2 sequence: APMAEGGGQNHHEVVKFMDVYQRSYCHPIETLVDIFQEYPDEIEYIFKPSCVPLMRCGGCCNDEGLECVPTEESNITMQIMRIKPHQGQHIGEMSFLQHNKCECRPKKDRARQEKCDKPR
Procedure: as §1

canine VEGFA (VEGF164) = molecular target: T3, canine VEGFA (VEGF164) (canine, UniProt Q9MYV3-3 27-190); experiment: ELISA, canine VEGFA coated at 20 ng/well, antibody serially diluted from 1 ug/ml, peroxidase anti-canine Ig, absorbance 450 nm
T3 construct: also called canine VEGF164
T3 sequence (looked up): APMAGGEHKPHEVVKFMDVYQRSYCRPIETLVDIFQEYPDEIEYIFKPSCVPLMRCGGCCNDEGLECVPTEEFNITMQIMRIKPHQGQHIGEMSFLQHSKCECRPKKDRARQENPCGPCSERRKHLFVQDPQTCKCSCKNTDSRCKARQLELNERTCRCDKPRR
Procedure: (§2) Next, after 3 times of washing with 300 μL of 0.02% Tween 20-containing PBS (−) (hereafter, denoted as “PBS-T”), 300 μL of 3% skim milk-containing PBS (−) was dispensed into each well, followed by blocking at 37° C. for 1 hour. […] After washing similarly, TMB Single Solution was added for color development at room temperature. After the reaction was stopped with 1 N sulfuric acid, absorbance at 450 nm was measured using a plate reader (Molecular Devices).

[2] = molecular target: T1, Human recombinant VEGF165; experiment: ELISA, human VEGF165 coated at 20 ng/well, antibody serially diluted from 1 ug/ml, peroxidase anti-canine Ig, absorbance 450 nm
Procedure: as §2

[3] = molecular target: T1, Human recombinant VEGF165; experiment: SPR, BIAcore-3000, rhVEGF immobilized on the chip, antibody injected
[4] = molecular target: T1, Human recombinant VEGF165; experiment: measured KD for rhVEGF set against a cited KD of Avastin; the excerpt does not show the method

EC50 (read off the curve) [1]: ~0.04 µg/mL
EC50 (read off the curve) (human VEGF121): ~0.04 µg/mL
B1: human IgG1 chimeric KLHb1501 antibody (antibody, V domains shown)
VH: DVQLQESGPGLVKPSQSLSLTCTVTGYSITSDYAWTWIRQFPGDKLEWMGYISYSGSTRYNPSLKSRISITRDTSKNQFFLHLNSVTTEDTATYFCARGGDYYGSRPWFAYWGQGTLVTVSA
VL: QAVVTQESALTTSPGETVTLTCRSSTGAVTISNYANWVQEKPDHLFTGLIGGTNNRAPDVPARFSGSLIGDKAALTITGAQTEDEAIYFCALWYSNHLVFGEGTKLTVL
notes: also called KLHb1501HC; KLHb1501HC antibody

EC50 (read off the curve) (canine VEGFA (VEGF164)): ~0.03 µg/mL
EC50 (read off the curve) [2]: ~0.03 µg/mL
B2: canine-IgGB chimeric KLHb1501 antibody (antibody, V domains shown)
VH: DVQLQESGPGLVKPSQSLSLTCTVTGYSITSDYAWTWIRQFPGDKLEWMGYISYSGSTRYNPSLKSRISITRDTSKNQFFLHLNSVTTEDTATYFCARGGDYYGSRPWFAYWGQGTLVTVSA
VL: QAVVTQESALTTSPGETVTLTCRSSTGAVTISNYANWVQEKPDHLFTGLIGGTNNRAPDVPARFSGSLIGDKAALTITGAQTEDEAIYFCALWYSNHLVFGEGTKLTVLQ
notes: also called KLHb1501CC; KLHb1501CC antibody

Kd [3]: 0.6 pM
ratio of dissociation constant to that of Avastin (bevacizumab) [4]: ≤ 0.001 ratio (KD of the antibody / KD of Avastin, cited as 4.9 nmol/L)
B3: KLHb1501 (antibody, V domains shown)
VH: DVQLQESGPGLVKPSQSLSLTCTVTGYSITSDYAWTWIRQFPGDKLEWMGYISYSGSTRYNPSLKSRISITRDTSKNQFFLHLNSVTTEDTATYFCARGGDYYGSRPWFAYWGQGTLVTVSA
VL: QAVVTQESALTTSPGETVTLTCRSSTGAVTISNYANWVQEKPDHLFTGLIGGTNNRAPDVPARFSGSLIGDKAALTITGAQTEDEAIYFCALWYSNHLVFGEGTKLTVL
notes: also called KLHb1501 antibody; KLH1501
